Substrate in this experiment: F protein of wild type RSV A/Long (respiratory syncytial virus, strain A/Long) (UniProt P12568)
The experiment can be described thus: cell-based or functional assay.

Positions count from the first letter of the chain named.

F protein of wild type RSV A/Long (respiratory syncytial virus, strain A/Long), sequence (P12568 26-574): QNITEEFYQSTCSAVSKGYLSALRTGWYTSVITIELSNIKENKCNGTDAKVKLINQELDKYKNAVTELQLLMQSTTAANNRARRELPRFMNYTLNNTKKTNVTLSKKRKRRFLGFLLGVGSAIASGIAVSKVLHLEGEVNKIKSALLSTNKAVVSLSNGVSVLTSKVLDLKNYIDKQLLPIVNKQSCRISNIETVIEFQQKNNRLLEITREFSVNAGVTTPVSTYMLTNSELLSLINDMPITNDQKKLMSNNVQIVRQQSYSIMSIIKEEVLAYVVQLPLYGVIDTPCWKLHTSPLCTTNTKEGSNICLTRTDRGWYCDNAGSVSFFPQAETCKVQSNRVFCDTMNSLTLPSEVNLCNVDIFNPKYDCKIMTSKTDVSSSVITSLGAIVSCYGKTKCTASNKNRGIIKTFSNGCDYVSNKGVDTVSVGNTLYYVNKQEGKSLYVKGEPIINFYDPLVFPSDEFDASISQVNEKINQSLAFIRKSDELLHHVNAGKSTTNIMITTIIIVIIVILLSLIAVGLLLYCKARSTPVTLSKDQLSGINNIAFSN

B1: A17d4 (Fab) (Fab, V domains shown)
VH: QVTLRESGPALVKPTQTLTLTCTFSGFSLSTAGMSVGWIRQPPGKALEWLADIWWDGKKSYNPSLKDRLTISKDTSKNQVVLKVTNMDPADTATYYCARDMIFNFYFDVWGQGTTVTVSS
VL: DIQMTQSPSTLSASVGDRVTITCLPSSRVGYMHWYQQKPGKAPKLLIYDTMYQASGVPSRFSGSGSGTEFTLTISSLQPDDFATYYCFQFSGYPFTFGGGTKLEIK
As for B1, the Fold Difference (Control IC50) was 31 fold; the Fold Difference (Curve IC50) stood at 25 fold; the Mean IC50 (Control), RSV microneutralization was 0.0171 µg/mL; the Mean IC50 (Curve), RSV microneutralization worked out at 0.0179 µg/mL.

B2: A4B4 (Fab) (Fab, V domains shown)
VH: B1 VH with G57D, S60H
VL: B1 VL with L24S, P25A, M51F, Y52F, Q53L, A54D, F90G
For B2, the Fold Difference (Control IC50) was found to be 13 fold; the Fold Difference (Curve IC50) came to 11 fold; the Mean IC50 (Control), RSV microneutralization was determined as 0.0411 µg/mL; the Mean IC50 (Curve), RSV microneutralization was 0.0414 µg/mL.

B3: A1h5 (Fab) (Fab, V domains shown)
VH: B1 VH with A32P, S60H, F105W
VL: B1 VL with L24S, P25L, R28S, M51F, Y52F, Q53H, A54R, F90G
In the case of B3, the Fold Difference (Control IC50) stood at 3 fold; the Fold Difference (Curve IC50) came out at 2 fold; the Mean IC50 (Control), RSV microneutralization came out at 0.176 µg/mL; the Mean IC50 (Curve), RSV microneutralization worked out at 0.194 µg/mL.

B4: A8c7 (Fab) (Fab, V domains shown)
VH: B1 VH with G57D, F105W
VL: B1 VL with L24S, P25A, M51R, A54S, F90G
For the molecule B4, the Fold Difference (Control IC50) amounted to 34 fold; the Fold Difference (Curve IC50) was determined as 3 fold; the Mean IC50 (Control), RSV microneutralization was 0.157 µg/mL; the Mean IC50 (Curve), RSV microneutralization amounted to 0.177 µg/mL.

The record behind these values is patent US20020177126A1.
